This sample holds only a part of the variants without activity.
B1: TPR 5TU (parent)
chain: GGAUCUUCUCGAUCUAACAAAAAAGACAAAUCUGCCACAAAGCUUGAGAGCAUCUUCGGAUGCAGAGGCGGCAGCCUUCGGUGGCGCGAUAGCGCCAACGUUCUCAACUAUGACACGCAAAACGCGUGCUCCGUUGAAUGGAGUUUAUCAUG

Variants of: B1
Assay: polymerase ribozyme fitness, log enrichment relative to wild type (log ratio); higher = more active; in vitro selection for triplet polymerase activity
Procedure, shortened: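 Mutant libraries of both subunits of a heterodimeric triplet polymerase ribozyme were PCR-built, transcribed, and selected once in triplicate, with frozen incubation at −7 °C and capture of gel-excised extended constructs on streptavidin beads before RT-PCR. Illumina sequencing of input and output libraries was filtered to genotypes with ≥10 input reads and ≥1 read per output. Fitness is the logarithm of genotype enrichment over wild-type enrichment, using inverse-variance-weighted replicate averages. The logarithm is base 2.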

First: GGAUCUUCUCGAUCUAACAAAAAAGACAAACAUGCCAUAAAGCUUGAGAGCAUCUACGGAUGCAGAGGCGGCAGCCUUCGGUGGCACGAUAGCGCCAUCGUUCUCAACUAUGACACGCAAAACGCGUGCUCCGUUGAAUGGAGUUUAUCAUG
Second: GGAUCUUCUCGAUCUAACAAAAAAGACAAACCUGCCACAAAGCUUGAGAGCAUCUUCGGAUGCGGAGGCGGCAGCCUUCGGUGACGCGAUUGCGCCAAAGUUCUCAACUAUGACACGCAAAACGCGUGCUCCGUCGAAUGCAGUUUAUCAUG
The “polymerase ribozyme fitness (log ratio)” value of the first is higher: -4.14 for the first, at most -4.2 for the second.

Compared with GGAUCUUCUCGAUCUAACAAAAAAGACAAACCUGCCACACCGCUUGAGAGCAUCUUCGGAUGCAGAGGCGGCAGCCUUCGGUGGCGCGAUAGCGCCAACGUUCUCAACUAUGACACGCAAAACGCGUGCUCCGUUGAAUGGAGUUUAUCAUG, GGAUCUUCUCGAUCUAACAAAAAAGACAAACCUGCCACAAAGCUUGAGAGCAUCUUCGGAUGCAGAGGCGGCAGCCUUCGGUGGCGCGAUAACGCCAACGUUCUCAACUAUGACACGGAAAACGCGUGCUCCGUUGAAUGGAGUUUAUCAUG is lower in “polymerase ribozyme fitness (log ratio)” value: -0.373 for the first, -2.66 for the second.

Going from GGAUCUUCUCGAUCUAACAAAAAAGACAAAGCUGCCACAUAACUUGAGAGCAUCUUCGGAUGCAGAGGCGGCAGCCUUCGGUGGAGCGAUAGCGCCAACGUUCUCAACUAUGACACGCAAAACGCGUGCUCCGUUGAAUGGAGUUUACCAUG to GGAUCUUCUCGAUCUAACAAAAAAGACAAACCUGCCACAAAGCUUGAGAGCAUCUUCGGAUGCAGAGGCGGCAGCCUUCGGUGGCGAGAUAGCGCCAACGUUCUCAAUUAUGACACGCAAAACGCGUGCUCCGUUGAAUGGAGUUUACCAUG, the “polymerase ribozyme fitness (log ratio)” value rises from at most -4.2 to -3.95.

First: GGAUCUUCUCGAUCUAACAAAAAAGACAAACCUGCCACAAUGCUUGACAGCAUCGUCGGAUGCAGAGGCGGCAGCCUUCGGUGGCGCGUUAGCGCCAACGUUCUCAACUAUGACACGCAAAACGCGUGCUCCGUUGAAUGGAGUUUAUCAUG
Second: GGAUCUUCUCGAUCUAACAAAAAAGACAAACCUGCCACAAAGCUUGAGAGCAUCUUCGGAUGCAGAGGCGGCAGCCUUCGGUCGCGCGAUAGCGCCAACGUUCUCAUCUAUGACACGCAAAACGCGUGCUCCGUUGAAUGGAGUUUAUCAUG
The “polymerase ribozyme fitness (log ratio)” value of the first is higher: -2.77 for the first, -4 for the second.

GGAUCUUCUCGAUCUAACAAAAAAGACAAACCUGCCACAAAGCUGCAGAGCAUCUUCGGAUGCAGAGGCGGCAGCCUUCGGUUGCGCGAUAGCCCCAACGUUCUCAACUAUGACUCGCCAAACGCGUGCUCCGUUGAAUGGUGUUUAUCUUG and GGAUCUUCUCGAUCUAACAAAAAAGACAAACCUGCCACAAAGCUUGAAAGCAUCUUCGGAUGCAGAGGCGGCAGCCUUAGGUGGCGCGAUAGCGCCAACGUUCUUAACUAUGACACGCAGAACGCGUGCUCCGUUGAAUGUAGUUUCUCAUG cannot be ordered by “polymerase ribozyme fitness (log ratio)” value: at most -4.2 for the first, at most -4.2 for the second.

Going from GGAUCUUCUCGAUCUAACAAAAAAGACAAACCUGCCACAAAGCUCGAGUGCAUCUUCGGAUGCAGAGGCGGCAGCCUUCAGUGGCGCGAUAGCGCCAACGUUCUCAACUAUGAAACGCAAAACGCGUGCCCCGAUGAAUGGAGUUUAUCAUG to GGAUCUUCUCGAUCUAACAAAAAAGACAAAGCUGCCACAAAGCUUGAGAGCAUCUUCGGAUGCAGAGGCGGCGGCCUUCGGUGACGCGAUAGCGCCAACGUUCUCAACUAUGACACGCAAAACGCGUGCUCCGUUGAAUGGAGUUUAUCAUG, the “polymerase ribozyme fitness (log ratio)” value rises from at most -4.2 to 0.0111.

First: GGAUCUUCUCGAUCUAACAAAAAAGACAAACCUGCCACAAAGCUUGAGAGCAUCUUCGGAUGCAGAGGCGGCAGCGUUCGGUGGCGCGAUAGCGCCAACGUUCUCAACGAUGACACGCGAAACGCGUGCUCCGUUGAAUGCAGUUUAUCAUG
Second: GGAUCUUCUCGAUCUAACAAAAAAGACAAAGCUGCCACAAAGCUUGAGAGCAUCUUCGGUUGCAGAGGCGGCAGCCUUCGGUGGCGCGAUAGCGCCAACGUUCUCAACUAUGACACGCAAAACGCGUGCUCCGUUGAAUGGAGUUUAUCAUG
The “polymerase ribozyme fitness (log ratio)” value of the first is lower: at most -4.2 for the first, 0.29 for the second.

First: GGAUCUUCUCGAUCUAACAAAAAAGACAAAGCUGCCACAAAGCUUGAGAGCAUCUUCGGCUGCAGAGGCGGCAGCCUUCGGUGGCGCGAUAGCGCCAACGUUCUCAACUAUGACACGCAAAACGCGUGCUCCGUUGAAUGGAGUUUAUCAUG
Second: GGAUCUUCUCGAUCUAACAAAAAAGACAAACCUGCCACAAAGCUUGAGAGCAUCUUCGGAUGCAGAGGCGGCAGCCUUCGGUGGGGCGGUAGUGCCAACGUUCUCAACUAUGACACGCAAAACGCGUGCUCCGUUGAAUGGAGUUUAUCAUG
The “polymerase ribozyme fitness (log ratio)” value of the first is higher: -1.23 for the first, at most -4.2 for the second.

Compared with GGAUCUUCUCGAUCUAACAAAAAAGACAAAGCUGCCAAAAAGCUAGAGAGCAUCUUCGGAUGCAGAGGCGGCAGCCUUCGGUCGCGCGAUAGCGACAACGUUCUCAACUAUGACACGCAAAACGCGUGCUCCGUUGAAUGGAGUUUAUCAUG, GGAUCUUCUCGAUCUAACAAAAAAGACAAACCUGCCACAAAGCUUGAGAGCAUCUUCGGAUGCAGAGGCGGCAGCCUUCGCUGGUGCGAUAGCGCCAAGGUUCUCAACUAUGACACGCAAAACGCGUGCUCCGUUGAAUGGAGUUUAUCAUG is higher in “polymerase ribozyme fitness (log ratio)” value: at most -4.2 for the first, -0.592 for the second.

For GGAUCUUCUCGAUCUAACAAAAAAGACAAACCUGCCACAAAGCUUGAGAGCUUCUUCAGAUGCAGAGGCGGCAGCCUUCGGUGGCGCGAUAGCGGCAACGUUCUCAACUAUGACACGCAAAACGCGUGCUCCGUUGAAUGGAGUAUAUCAUG, the “polymerase ribozyme fitness (log ratio)” value was -3.19.

Source: the RNAGym collection of RNA variant scans (doi:10.1073/pnas.2313332121)
